The results in this text go back to patent US20240109859.

The target in this data set is T1, IRF3 wild-type (UniProt Q14653 Q14653:1-427).
T1 sequence: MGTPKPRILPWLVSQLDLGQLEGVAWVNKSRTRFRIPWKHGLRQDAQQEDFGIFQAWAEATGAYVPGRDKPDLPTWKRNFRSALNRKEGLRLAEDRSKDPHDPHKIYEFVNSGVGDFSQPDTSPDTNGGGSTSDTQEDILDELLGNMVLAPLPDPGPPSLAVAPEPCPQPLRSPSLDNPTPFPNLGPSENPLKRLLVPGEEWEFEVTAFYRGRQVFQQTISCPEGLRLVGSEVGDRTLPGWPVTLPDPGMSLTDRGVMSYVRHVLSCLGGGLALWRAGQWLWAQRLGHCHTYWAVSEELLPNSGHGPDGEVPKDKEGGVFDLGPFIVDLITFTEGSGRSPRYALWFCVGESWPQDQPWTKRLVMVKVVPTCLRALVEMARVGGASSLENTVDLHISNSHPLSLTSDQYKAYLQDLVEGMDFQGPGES
Briefly: EMSA; 2.5 nM probe, 10 mM Tris pH 7.5, 50 mM NaCl, 2 mM DTT, room temperature 45 min; cold probe competition. The settings on record: tags: Flag, expressed in HEK293T; label: 32P. How it is done:
Electrophoresis Mobility Shift Assay (EMSA). Flag-IRF3-WT and Flag-IRF3-N85D were purified from HEK293T cells. Binding reactions were carried out in 20 μl volumes containing: 2.5 nM P32 labeled DNA probe targeting IFN-β promoter (forward: […] (SEQ ID NO: 41); reverse: […]) (SEQ ID NO: 42); 10 mM Tris pH 7.5; 50 mM NaCl; 2 mM DTT and indicated purified Flag-IRF3-WT or Flag-IRF3-N85D. Unlabeled probe (cold probe) was used for competition assay. Reactions were incubated at room temperature for 45 min, and resolved in 6% polyacrylamide gels (29:1 crosslinking) with 0.5×TBE running buffer at […] on ice until the loading dye front reached the bottom of the gel. Gels were dried and analyzed using phosphorimaging instrumentation.
(In EMSA bound probe runs differently from free probe, usually more slowly.)

B1: IFN-beta promoter probe (dsDNA)
DNA 1: GCACCGCTAACCGAAACCGAAACTGTGC
DNA 2: GCACAGTTTCGGTTTCGGTTAGCGGTGC
For B1, the binding result is “binds”.
